According to patent publication US20160151487A1 (Hoffmann-La Roche, published 2016):

Experiments:
[1] = molecular target: T1, human neonatal Fc-receptor (FcRn), soluble extracellular domain with His-Avi Tag, co-expressed with … (human, UniProt P55899 24-297; P61769 21-119, biotinylated (Avi Tag) for the affinity column); experiment: SPR (BIAcore T100), FcRn immobilized on CM5 chip by amine coupling (400 RU), 200 nM antibody injected, PBS 0.05% Tween-20 pH 6.0, room temperature
T1 construct: SPR: amine-coupled to a CM5 chip (400 RU), pH 6.0; also called huFcRn; FcRn/beta2-microglobulin
T1 sequence (P55899 24-297 limits assumed, chain 1 of 2): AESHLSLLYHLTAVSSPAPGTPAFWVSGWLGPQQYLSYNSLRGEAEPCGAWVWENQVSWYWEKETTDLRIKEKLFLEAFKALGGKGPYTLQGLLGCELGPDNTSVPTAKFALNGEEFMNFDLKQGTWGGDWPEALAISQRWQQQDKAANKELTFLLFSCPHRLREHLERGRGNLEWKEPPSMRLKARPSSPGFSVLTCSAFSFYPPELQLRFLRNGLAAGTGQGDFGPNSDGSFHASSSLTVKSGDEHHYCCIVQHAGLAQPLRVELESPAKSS
T1 sequence (P61769 21-119 limits assumed, chain 2 of 2): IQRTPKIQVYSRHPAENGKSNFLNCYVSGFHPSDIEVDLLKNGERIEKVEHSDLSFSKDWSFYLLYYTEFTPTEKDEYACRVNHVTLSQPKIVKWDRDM
Method: The binding properties of wild-type antibody and the mutants to FcRn were analyzed by surface plasmon resonance (SPR) technology using a BIAcore T100 instrument (BIAcore AB, Uppsala, Sweden). […] In the current assay, the FcRn receptor was immobilized onto a BIAcore CM5-biosensor chip (GE Healthcare Bioscience, Uppsala, Sweden) via amine coupling to a level of 400 Response units (RU). The assay was carried out at room temperature with PBS, 0.05% Tween-20TM pH 6.0 (GE Healthcare Bioscience) as running and dilution buffer. 200 nM of antibody samples were injected at a flow rate of 50 μL/min at room temperature. Association time was 180 seconds, dissociation phase took 360 seconds. Regeneration of the chip surface was reached by a short injection of HBS-P, pH 8.0. Evaluation of SPR-data was performed by comparison of the biological response signal height at 180 seconds after injection and at 300 seconds after injection. The corresponding parameters are the RU max level (180 seconds after injection) and late stability (300 seconds after end of injection).

[2] = molecular target: T1, human neonatal Fc-receptor (FcRn), …; experiment: FcRn affinity chromatography
Method: Antibody samples containing 50 to 100 μg of protein were adjusted to pH 5.5 and applied to the FcRn column using ÄKTA explorer 10 XT or Dionex Summit (Dionex, Idstein, Germany). The column with 5 cm bed height was then washed with 5-10 column volumes of equilibration buffer 20 mM MES, 150 mM NaCl, pH 5.5. […] For complete elution of modified antibodies, the pH was increased in the gradient up to pH 8.8. The experiments were carried out at room temperature. The elution profile was obtained by continuous measurement of the absorbance at 280 nm. The time taken for an analyte peak, X, to reach the detector after sample injection was called the retention time.

Binder	binding result [1]	retention time on FcRn affinity column [2]
<IGF-1R> IgG1 with M252Y, S254T, T256E (antibody, also called YTE-mutant of anti-IGF-1R antibody) light: not shown heavy: QVELVESGGGVVQPGRSQRLSCAASGFTFSSYGMHWVRQAPGKGLEWVAIIWFDGSSTYYADSVRGRFTISRDNSKNTLYLQMNSLRAEDTAVYFCARELGRRYFDLWGRGTLVSVSSASTKGPSVFPLAPSSKSTSGGTAALGCLVKDYFPEPVTVSWNSGALTSGVHTFPAVLQSSGLYSLSSVVTVPSSSLGTQTYICNVNHKPSNTKVDKKVEPKSCDKTHTCPPCPAPELLGGPSVFLFPPKPKDTLYITREPEVTCVVVDVSHEDPEVKFNWYVDGVEVHNAKTKPREEQYNSTYRVVSVLTVLHQDWLNGKEYKCKVSNKALPAPIEKTISKAKGQPREPQVYTLPPSRDELTKNQVSLTCLVKGFYPSDIAVEWESNGQPENNYKTTPPVLDSDGSFFLYSKLTVDKSRWQQGNVFSCSVMHEALHNHYTQKSLSLSPG	binds	
<IGF-1R> IgG1 knob wt, hole H310A, H433A, Y436A (antibody, also called IGF-1R 0035; anti-IGF-1R antibody (knobs-into-holes), one chain with H310A/H433A/Y436A) light: not shown heavy 1: not shown heavy 2: QVELVESGGGVVQPGRSQRLSCAASGFTFSSYGMHWVRQAPGKGLEWVAIIWFDGSSTYYADSVRGRFTISRDNSKNTLYLQMNSLRAEDTAVYFCARELGRRYFDLWGRGTLVSVSSASTKGPSVFPLAPSSKSTSGGTAALGCLVKDYFPEPVTVSWNSGALTSGVHTFPAVLQSSGLYSLSSVVTVPSSSLGTQTYICNVNHKPSNTKVDKKVEPKSCDKTHTCPPCPAPELLGGPSVFLFPPKPKDTLMISRTPEVTCVVVDVSHEDPEVKFNWYVDGVEVHNAKTKPREEQYNSTYRVVSVLTVLAQDWLNGKEYKCKVSNKALPAPIEKTISKAKGQPREPQVCTLPPSRDELTKNQVSLSCAVKGFYPSDIAVEWESNGQPENNYKTTPPVLDSDGSFFLVSKLTVDKSRWQQGNVFSCSVMHEALANHATQKSLSLSPGK		42.4 min
<IGF-1R> IgG1 knob wt, hole M252Y, S254T, T256E (antibody, T0033 lists L234A/L235A/P329G for IGF-1R 0036; also called IGF-1R 0036; anti-IGF-1R antibody (knobs-into-holes), one chain with M252Y/S254T/T256E) light: not shown heavy 1: not shown heavy 2: QVELVESGGGVVQPGRSQRLSCAASGFTFSSYGMHWVRQAPGKGLEWVAIIWFDGSSTYYADSVRGRFTISRDNSKNTLYLQMNSLRAEDTAVYFCARELGRRYFDLWGRGTLVSVSSASTKGPSVFPLAPSSKSTSGGTAALGCLVKDYFPEPVTVSWNSGALTSGVHTFPAVLQSSGLYSLSSVVTVPSSSLGTQTYICNVNHKPSNTKVDKKVEPKSCDKTHTCPPCPAPELLGGPSVFLFPPKPKDTLYITREPEVTCVVVDVSHEDPEVKFNWYVDGVEVHNAKTKPREEQYNSTYRVVSVLTVLHQDWLNGKEYKCKVSNKALPAPIEKTISKAKGQPREPQVCTLPPSRDELTKNQVSLSCAVKGFYPSDIAVEWESNGQPENNYKTTPPVLDSDGSFFLVSKLTVDKSRWQQGNVFSCSVMHEALHNHYTQKSLSLSPGK		57.6 min
<IGF-1R> IgG1 knob wt, hole L251D, L314D, L432D (antibody, T0033 lists L234A/L235A/P329G for IGF-1R 0037; also called IGF-1R 0037; anti-IGF-1R antibody (knobs-into-holes), one chain with L251D/L314D/L432D) light: not shown heavy 1: not shown heavy 2: QVELVESGGGVVQPGRSQRLSCAASGFTFSSYGMHWVRQAPGKGLEWVAIIWFDGSSTYYADSVRGRFTISRDNSKNTLYLQMNSLRAEDTAVYFCARELGRRYFDLWGRGTLVSVSSASTKGPSVFPLAPSSKSTSGGTAALGCLVKDYFPEPVTVSWNSGALTSGVHTFPAVLQSSGLYSLSSVVTVPSSSLGTQTYICNVNHKPSNTKVDKKVEPKSCDKTHTCPPCPAPELLGGPSVFLFPPKPKDTDMISRTPEVTCVVVDVSHEDPEVKFNWYVDGVEVHNAKTKPREEQYNSTYRVVSVLTVLHQDWDNGKEYKCKVSNKALPAPIEKTISKAKGQPREPQVCTLPPSRDELTKNQVSLSCAVKGFYPSDIAVEWESNGQPENNYKTTPPVLDSDGSFFLVSKLTVDKSRWQQGNVFSCSVMHEADHNHYTQKSLSLSPGK		40.9 min
<IgF-1R> IgG1 knob wt, hole I253A, H310A, H435A (antibody, T0033 lists L234A/L235A/P329G for IGF-1R 0034; also called IGF-1R 0034; anti-IGF-1R antibody (knobs-into-holes), one chain with I253A/H310A/H435A) light: not shown heavy 1: not shown heavy 2: QVELVESGGGVVQPGRSQRLSCAASGFTFSSYGMHWVRQAPGKGLEWVAIIWFDGSSTYYADSVRGRFTISRDNSKNTLYLQMNSLRAEDTAVYFCARELGRRYFDLWGRGTLVSVSSASTKGPSVFPLAPSSKSTSGGTAALGCLVKDYFPEPVTVSWNSGALTSGVHTFPAVLQSSGLYSLSSVVTVPSSSLGTQTYICNVNHKPSNTKVDKKVEPKSCDKTHTCPPCPAPELLGGPSVFLFPPKPKDTLMASRTPEVTCVVVDVSHEDPEVKFNWYVDGVEVHNAKTKPREEQYNSTYRVVSVLTVLAQDWLNGKEYKCKVSNKALPAPIEKTISKAKGQPREPQVCTLPPSRDELTKNQVSLSCAVKGFYPSDIAVEWESNGQPENNYKTTPPVLDSDGSFFLVSKLTVDKSRWQQGNVFSCSVMHEALHNAYTQKSLSLSPGK		42 min
